Assays:
Type in all cases: functional, cell-based
[1] = substrate: O=C1CNC(=O)[C@H](Cc2ccc(O)cc2)N1; assay: (§1) TP_TRANSPORTER: uptake in Caco-2 cells
[2] = substrate: O=C1CNC(=O)[C@H](Cc2ccccc2)N1; assay: as §1
[3] = substrate: O=C1N[C@@H](Cc2ccc(O)cc2)C(=O)N[C@H]1CO; assay: as §1
[4] = substrate: O=C1N[C@@H](Cc2ccccc2)C(=O)N[C@H]1CO; assay: as §1

B1: Solute carrier family 15 member 1 (Homo sapiens), P46059 (protein)
chain: MGMSKSHSFFGYPLSIFFIVVNEFCERFSYYGMRAILILYFTNFISWDDNLSTAIYHTFVALCYLTPILGALIADSWLGKFKTIVSLSIVYTIGQAVTSVSSINDLTDHNHDGTPDSLPVHVVLSLIGLALIALGTGGIKPCVSAFGGDQFEEGQEKQRNRFFSIFYLAINAGSLLSTIITPMLRVQQCGIHSKQACYPLAFGVPAALMAVALIVFVLGSGMYKKFKPQGNIMGKVAKCIGFAIKNRFRHRSKAFPKREHWLDWAKEKYDERLISQIKMVTRVMFLYIPLPMFWALFDQQGSRWTLQATTMSGKIGALEIQPDQMQTVNAILIVIMVPIFDAVLYPLIAKCGFNFTSLKKMAVGMVLASMAFVVAAIVQVEIDKTLPVFPKGNEVQIKVLNIGNNTMNISLPGEMVTLGPMSQTNAFMTFDVNKLTRINISSPGSPVTAVTDDFKQGQRHTLLVWAPNHYQVVKDGLNQKPEKGENGIRFVNTFNELITITMSGKVYANISSYNASTYQFFPSGIKGFTISSTEIPPQCQPNFNTFYLEFGSAYTYIVQRKNDSCPEVKVFEDISANTVNMALQIPQYFLLTCGEVVFSVTGLEFSYSQAPSNMKSVLQAGWLLTVAVGNIIVLIVAGAGQFSKQWAEYILFAALLLVVCVIFAIMARFYTYINPAEIEAQFDEDEKKNRLEKSNPYFMSGANSQKQM
B1 was tested, and the Km [1] was 62.9 µM, the Km [2] was 90.9 µM and the Km [3] was 21.9 µM. The Km [4] was 118 µM.
